Experimental data taken from PMC5970177.

Target: αvβ3 integrin (human (endogenous in U87MG)) (UniProt P06756)
UniProt P06756, sequence (P06756 31-1048, chain 1 of 2): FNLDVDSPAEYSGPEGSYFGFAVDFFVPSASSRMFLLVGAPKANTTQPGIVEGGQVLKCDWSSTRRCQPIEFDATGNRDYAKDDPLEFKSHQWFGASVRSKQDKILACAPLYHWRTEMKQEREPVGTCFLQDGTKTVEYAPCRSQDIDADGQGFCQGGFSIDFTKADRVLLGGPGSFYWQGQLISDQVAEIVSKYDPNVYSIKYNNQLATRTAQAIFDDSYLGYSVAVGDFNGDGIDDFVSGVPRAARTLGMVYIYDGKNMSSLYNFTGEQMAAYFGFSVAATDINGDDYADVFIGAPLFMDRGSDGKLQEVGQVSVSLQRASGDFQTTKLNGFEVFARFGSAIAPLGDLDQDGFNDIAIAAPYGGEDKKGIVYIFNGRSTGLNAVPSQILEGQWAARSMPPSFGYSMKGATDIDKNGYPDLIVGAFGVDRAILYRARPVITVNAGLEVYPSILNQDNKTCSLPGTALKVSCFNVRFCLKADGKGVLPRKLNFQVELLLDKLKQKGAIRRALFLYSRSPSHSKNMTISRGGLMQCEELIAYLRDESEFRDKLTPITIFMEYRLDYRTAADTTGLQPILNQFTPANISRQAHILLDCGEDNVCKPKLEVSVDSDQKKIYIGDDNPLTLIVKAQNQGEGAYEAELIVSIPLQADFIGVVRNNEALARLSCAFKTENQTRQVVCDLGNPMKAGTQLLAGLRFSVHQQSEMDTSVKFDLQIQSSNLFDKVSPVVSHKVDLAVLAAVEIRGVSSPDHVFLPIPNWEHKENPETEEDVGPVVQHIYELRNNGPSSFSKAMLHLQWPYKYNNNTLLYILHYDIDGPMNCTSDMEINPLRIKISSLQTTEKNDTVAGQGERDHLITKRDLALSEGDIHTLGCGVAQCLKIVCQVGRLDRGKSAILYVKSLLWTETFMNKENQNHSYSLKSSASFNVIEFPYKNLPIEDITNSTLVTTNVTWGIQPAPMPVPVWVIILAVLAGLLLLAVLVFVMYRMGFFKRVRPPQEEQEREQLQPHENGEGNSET
UniProt P06756, sequence (P05106 27-788, chain 2 of 2, further chain): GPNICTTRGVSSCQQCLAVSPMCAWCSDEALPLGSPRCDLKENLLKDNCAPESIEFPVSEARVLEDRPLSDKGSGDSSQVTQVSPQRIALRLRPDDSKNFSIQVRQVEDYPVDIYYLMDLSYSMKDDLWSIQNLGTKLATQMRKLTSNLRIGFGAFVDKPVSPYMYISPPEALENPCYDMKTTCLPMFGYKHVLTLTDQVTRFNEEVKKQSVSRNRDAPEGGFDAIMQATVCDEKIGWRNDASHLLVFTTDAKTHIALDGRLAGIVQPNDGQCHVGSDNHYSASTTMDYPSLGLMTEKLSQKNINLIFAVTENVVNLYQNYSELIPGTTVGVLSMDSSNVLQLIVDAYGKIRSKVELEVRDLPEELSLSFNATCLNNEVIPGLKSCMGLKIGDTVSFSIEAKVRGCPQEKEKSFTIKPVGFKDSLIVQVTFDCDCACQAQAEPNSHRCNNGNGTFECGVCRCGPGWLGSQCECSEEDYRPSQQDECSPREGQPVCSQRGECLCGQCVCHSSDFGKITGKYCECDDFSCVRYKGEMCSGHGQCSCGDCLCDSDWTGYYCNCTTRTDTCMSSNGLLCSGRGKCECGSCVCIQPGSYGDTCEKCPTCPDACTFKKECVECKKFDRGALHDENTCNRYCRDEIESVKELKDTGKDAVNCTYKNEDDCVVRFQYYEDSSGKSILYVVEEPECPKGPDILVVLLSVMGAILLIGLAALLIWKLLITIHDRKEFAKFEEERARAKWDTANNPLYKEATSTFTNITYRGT

700DX-PEG-PGlu-cRGD15 (peptide) gave a cellular uptake in U87MG cells at 200 nM 700DX (fluorescence intensity after 7 h), fold over cells incubated with 700DX-PEG-cRGD of 2.5 times and a cellular uptake in U87MG cells at 200 nM 700DX (fluorescence intensity after 7 h), fold over cells incubated with free 700DX of 4.5 times.
